Each block holds one molecule with its values, some of them ahead of it.
Experiments:
FtsA (Escherichia coli) [1] = molecular target: FtsA (Escherichia coli) (UniProt P0ABH0); assay: TIRF colocalisation on supported lipid bilayers
[2] = molecular target: FtsZ/FtsA co-filaments on a supported lipid bilayer (Escherichia coli) (UniProt P0ABH0); assay: TIRF colocalisation on supported lipid bilayers
FtsA (Escherichia coli) [3] = molecular target: FtsA (Escherichia coli) (UniProt P0ABH0); assay: MST
[4] = molecular target: FtsZ/FtsA co-filaments on a supported lipid bilayer (Escherichia coli) (UniProt P0ABH0); assay: single-molecule tracking by TIRF on supported lipid bilayers
AUC = molecular target: the molecule itself; assay: AUC

Pearson correlation coefficient of colocalisation with FtsZ [2]: 0.75 | Kd (FtsA (Escherichia coli) [3]): 160 nM
Molecule: FtsN_(cyto-D5N)His (peptide)

Pearson correlation coefficient of colocalisation with FtsZ [2]: 0.4
Molecule: FtsQ_(cyto)His (peptide)

Pearson correlation coefficient of FtsA/FtsZ colocalisation (FtsA (Escherichia coli) [1]): 0.79
Molecule: FtsZ (natural protein)

Continued, molecule first:

Molecule: FtsN_(cyto)His (peptide)
Pearson correlation coefficient of colocalisation with FtsA (FtsA (Escherichia coli) [1]): 0.8 | Pearson correlation coefficient of colocalisation with FtsZ [2]: 0.86 | fold lower colocalization efficiency with GMPCPP against GTP [2]: 1.5 fold | Kd (FtsA (Escherichia coli) [3]): 324 nM | average duration of confinement [4]: 0.41 s | frequency of confinement events, fold over the DDEE mutant [4]: 3 fold | weight of the population with short displacements, fold over FtsN (cyto-DDEE)His [4]: 3 fold | weighted contribution of the confined population, fold over FtsN (cyto-DDEE)His [4]: 2 fold

B1: full-length FtsN with a C-terminal oligohistidine tag (natural protein, Escherichia coli, UniProt P29131 1-319, looked up)
chain: MAQRDYVRRSQPAPSRRKKSTSRKKQRNLPAVSPAMVAIAAAVLVTFIGGLYFITHHKKEESETLQSQKVTGNGLPPKPEERWRYIKELESRQPGVRAPTEPSAGGEVKTPEQLTPEQRQLLEQMQADMRQQPTQLVEVPWNEQTPEQRQQTLQRQRQAQQLAEQQRLAQQSRTTEQSWQQQTRTSQAAPVQAQPRQSKPASSQQPYQDLLQTPAHTTAQSKPQQAAPVARAADAPKPTAEKKDERRWMVQCGSFRGAEQAETVRAQLAFEGFDSKITTNNGWNRVVIGPVKGKENADSTLNRLKMAGHTNCIRLAAGG
binding result (AUC): binds
